The text below walks through data of patent US20210253718A1 (MODMAB THERAPEUTICS, published 2021).

The target of test [1] is T1, FZD4 cysteine-rich domain (CRD), MYC-tagged and GPI-anchored on CHO cells (human, UniProt Q9ULV1 42-167, GPI anchor).
T1 construct: also called FZD4 CRD; CHO-myc-FZDGPI; not shown: MYC tag and GPI anchor signal
T1 sequence: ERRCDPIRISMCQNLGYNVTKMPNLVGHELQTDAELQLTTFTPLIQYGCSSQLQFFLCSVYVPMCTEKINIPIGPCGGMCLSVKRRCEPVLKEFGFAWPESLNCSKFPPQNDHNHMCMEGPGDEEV
Put plainly: immunofluorescence, CHO-CRD cells.

Test [2] deals with T2, FZD6 cysteine-rich domain (CRD), MYC-tagged and GPI-anchored on CHO cells (human, UniProt O60353 20-146, GPI anchor).
T2 construct: also called FZD6 CRD; CHO-myc-FZDGPI; not shown: MYC tag and GPI anchor signal
T2 sequence: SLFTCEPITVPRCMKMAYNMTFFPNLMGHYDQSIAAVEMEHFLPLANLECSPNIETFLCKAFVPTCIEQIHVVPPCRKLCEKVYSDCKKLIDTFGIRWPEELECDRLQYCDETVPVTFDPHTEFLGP
The test can be described thus: immunofluorescence, CHO-CRD cells.

In test [3] the target is T3, FZD9 cysteine-rich domain (CRD), MYC-tagged and GPI-anchored on CHO cells (human, UniProt O00144 35-161, GPI anchor).
T3 construct: also called FZD9 CRD; CHO-myc-FZDGPI; not shown: MYC tag and GPI anchor signal
T3 sequence: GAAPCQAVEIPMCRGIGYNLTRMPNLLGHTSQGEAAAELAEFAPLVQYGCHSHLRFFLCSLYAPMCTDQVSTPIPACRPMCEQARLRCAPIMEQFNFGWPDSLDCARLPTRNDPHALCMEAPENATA
The test can be described thus: immunofluorescence, CHO-CRD cells.

For test [4], the target named is T4, FZD2 cysteine-rich domain (CRD), MYC-tagged and GPI-anchored on CHO cells (human, UniProt Q14332 35-161). The test can be described thus: immunofluorescence, CHO-CRD cells.
Test [5] has as its target T5, FZD3 cysteine-rich domain (CRD), MYC-tagged and GPI-anchored on CHO cells (human, UniProt Q9NPG1 24-150, GPI anchor).
T5 construct: domain: cysteine-rich domain (CRD); also called FZD3 CRD; CHO-myc-FZDGPI; not shown: MYC tag and GPI anchor signal
T5 sequence (looked up): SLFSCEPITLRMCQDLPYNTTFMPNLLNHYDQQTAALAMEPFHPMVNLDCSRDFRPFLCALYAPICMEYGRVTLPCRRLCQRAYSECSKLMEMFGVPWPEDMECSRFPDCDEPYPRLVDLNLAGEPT
The test can be described thus: immunofluorescence, CHO-CRD cells.

The target in test [6] is T6, FZD10 cysteine-rich domain (CRD), MYC-tagged and GPI-anchored on CHO cells (human, UniProt Q9ULW2 30-156, GPI anchor).
T6 construct: also called FZD10 CRD; CHO-myc-FZDGPI; not shown: MYC tag and GPI anchor signal
T6 sequence: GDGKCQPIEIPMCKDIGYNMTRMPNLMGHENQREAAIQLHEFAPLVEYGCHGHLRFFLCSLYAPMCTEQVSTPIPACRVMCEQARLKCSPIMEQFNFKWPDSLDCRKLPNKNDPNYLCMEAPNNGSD
Put plainly: immunofluorescence, CHO-CRD cells.

Test [7] addresses T1, FZD4 cysteine-rich domain (CRD), …. Put plainly: flow cytometry, CHO-CRD cells.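 Further: flow cytometry of Fab binding to CHO cells overexpressing a Frizzled CRD, with binding defined as median fluorescence over twice that of CHO cells lacking any Frizzled CRD.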 For orientation: Flow cytometry measures light scatter and fluorescence of single cells or particles in a stream.
Description: (§1) Binding was measured via flow cytometry analysis of CHO cells overexpressing CRD of FZD1, FZD2, FZD3, FZD4, FZD5, FZD6, FZD7, FZD8, FZD9 or FZD10. Median fluorescence values are shown.
Test [8] addresses T2, FZD6 cysteine-rich domain (CRD), …. The test can be described thus: flow cytometry, CHO-CRD cells.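 Further: flow cytometry of Fab binding to CHO cells overexpressing a Frizzled CRD, with binding defined as median fluorescence over twice that of CHO cells lacking any Frizzled CRD.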
Description: as §1
In test [9] the target is T3, FZD9 cysteine-rich domain (CRD), …. The test can be described thus: flow cytometry, CHO-CRD cells.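 Further: flow cytometry of Fab binding to CHO cells overexpressing a Frizzled CRD, with binding defined as median fluorescence over twice that of CHO cells lacking any Frizzled CRD.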
Description: as §1
The target in test [10] is T4, FZD2 cysteine-rich domain (CRD), …. The test can be described thus: flow cytometry, CHO-CRD cells.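 Further: flow cytometry of Fab binding to CHO cells overexpressing a Frizzled CRD, with binding defined as median fluorescence over twice that of CHO cells lacking any Frizzled CRD.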
Description: as §1
Test [11] concerns the target FZD7 cysteine-rich domain (CRD), MYC-tagged and GPI-anchored on CHO cells (human, UniProt O75084 45-169). Put plainly: flow cytometry, CHO-CRD cells.
Description: as §1
For test [12], the target named is T5, FZD3 cysteine-rich domain (CRD), …. Put plainly: flow cytometry, CHO-CRD cells.
Description: as §1
In test [13] the target is T6, FZD10 cysteine-rich domain (CRD), …. The test can be described thus: flow cytometry, CHO-CRD cells.
Description: as §1
In test [14] the target is T7, FZD8 cysteine-rich domain (CRD), MYC-tagged and GPI-anchored on CHO cells (human, UniProt Q498S8 31-155 (rat entry), GPI anchor).
T7 construct: also called FZD8 CRD; CHO-myc-FZDGPI; not shown: MYC tag and GPI anchor signal
T7 sequence: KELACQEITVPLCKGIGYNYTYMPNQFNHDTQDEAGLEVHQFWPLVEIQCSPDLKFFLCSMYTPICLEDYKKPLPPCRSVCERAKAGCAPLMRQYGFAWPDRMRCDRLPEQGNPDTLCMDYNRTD
Put plainly: flow cytometry, CHO-CRD cells.

The target in test [15] is T8, FZD5 cysteine-rich domain (CRD), MYC-tagged and GPI-anchored on CHO cells (human, UniProt Q13467 29-156, GPI anchor).
T8 construct: also called FZD5 CRD; CHO-myc-FZDGPI; not shown: MYC tag and GPI anchor signal
T8 sequence: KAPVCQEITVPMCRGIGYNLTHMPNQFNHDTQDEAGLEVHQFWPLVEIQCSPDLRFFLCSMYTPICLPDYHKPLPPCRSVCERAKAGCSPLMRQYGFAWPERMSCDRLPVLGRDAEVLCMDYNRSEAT
The test can be described thus: flow cytometry, CHO-CRD cells.

The target in test [16] is T9, FZD1 cysteine-rich domain (CRD), MYC-tagged and GPI-anchored on CHO cells (human). Put plainly: immunofluorescence, CHO-CRD cells.
Test [17] addresses T9, FZD1 cysteine-rich domain (CRD), …. Put plainly: flow cytometry, CHO-CRD cells.
Description: as §1

B1: Fab-2917 (Fab, V domains shown)
VH: EVQLVESGGGLVQPGGSLRLSCAASGFNFSSSSIHWVRQAPGKGLEWVASISSSYGYTYYADSVKGRFTISADTSKNTAYLQMNSLRAEDTAVYYCARAVWYYWWVWGGFDYWGQGTLVTVSS
VL: DIQMTQSPSSLSASVGDRVTITCRASQSVSSAVAWYQQKPGKAPKLLIYSASSLYSGVPSRFSGSRSGTDFTLTISSLQPEDFATYYCQQSSYSLITFGQGTKVEIK
notes: Fab; also called Fv-2917
For B1, the binding result in [1], in [2], in test [3], in [4], in test [5] and in test [6] was “no binding” each time. The median fluorescence is 4.14 in [7]; 2.89 in [8]; 3.49 in test [9]; 5.57 in [10]; 20.5 in test [11]; 3.46 in test [12]. The molecule also showed a median fluorescence in test [13] of 2.76.

B2: Fab-2910 (Fab, V domains shown)
VH: EVQLVESGGGLVQPGGSLRLSCAASGFNISYSYMHWVRQAPGKGLEWVASIYSSSSSTSYADSVKGRFTISADTSKNTAYLQMNSLRAEDTAVYYCARGAMDYWGQGTLVTVSS
VL: DIQMTQSPSSLSASVGDRVTITCRASQSVSSAVAWYQQKPGKAPKLLIYSASSLYSGVPSRFSGSRSGTDFTLTISSLQPEDFATYYCQQWYGSHLITFGQGTKVEIK
notes: Fab
As to B2, the binding result in test [1], in test [2], in test [3], in test [4], in [5] and in test [6] was “no binding” in each case. Besides, the median fluorescence was 5 in test [7]; 7.91 in test [14]; 30.5 in [15]; 2.79 in test [8]; 2.74 in test [9]; 4.47 in [10]. Besides, the median fluorescence in test [11] came to 10.2; in test [12], 3.28; in [13], 2.81.

B3: Fab-2918 (Fab, V domains shown)
VH: EVQLVESGGGLVQPGGSLRLSCAASGFNLSYSSIHWVRQAPGKGLEWVASIYSSYSSTSYADSVKGRFTISADTSKNTAYLQMNSLRAEDTAVYYCARFGYWAIDYWGQGTLVTVSS
VL: DIQMTQSPSSLSASVGDRVTITCRASQSVSSAVAWYQQKPGKAPKLLIYSASSLYSGVPSRFSGSRSGTDFTLTISSLQPEDFATYYCQQAFGASLFTFGQGTKVEIK
notes: Fab; also called Fv-2918
In the case of B3, the binding result in test [1], in test [2], in [3], in [4], in test [5] and in test [6] was “no binding” each time. For the same molecule, the median fluorescence in test [7] was 4.07; in test [14], 7.57; in test [15], 29.2; in test [8], 2.69; in test [9], 3.11; in test [10] it was 4.41. For the same molecule, the median fluorescence stood at 7.5 in test [11], 3.55 in test [12] and 2.81 in [13].

B4: Fab-2929 (Fab, V domains shown)
VH: EVQLVESGGGLVQPGGSLRLSCAASGFNISYYYIHWVRQAPGKGLEWVASIYPSSSSTSYADSVKGRFTISADTSKNTAYLQMNSLRAEDTAVYYCARGAMDYWGQGTLVTVSS
VL: DIQMTQSPSSLSASVGDRVTITCRASQSVSSAVAWYQQKPGKAPKLLIYSASSLYSGVPSRFSGSRSGTDFTLTISSLQPEDFATYYCQQWYSSYGLITFGQGTKVEIK
notes: Fab; also called Fv-2929
Regarding B4, the binding result in test [1], in test [2], in test [3], in test [4], in [5] and in test [6] was “no binding” in each case. The median fluorescence in test [7] amounted to 3.72; in test [14], 7.91; in test [15], 27.1; in test [8] it was 2.84; in [9], 3.08; in test [10], 4.29. For the same molecule, the median fluorescence in [11] amounted to 13; in test [12] it was 3.55; in test [13], 2.64.

B5: Fab-2906 (Fab, V domains shown)
VH: EVQLVESGGGLVQPGGSLRLSCAASGFNFSSSSIHWVRQAPGKGLEWVAYISSSYGYTYYADSVKGRFTISADTSKNTAYLQMNSLRAEDTAVYYCARTVRGSKKPYFSGWAMDYWGQGTLVTVSS
VL: DIQMTQSPSSLSASVGDRVTITCRASQSVSSAVAWYQQKPGKAPKLLIYSASSLYSGVPSRFSGSRSGTDFTLTISSLQPEDFATYYCQQWSWGFLITFGQGTKVEIK
notes: Fab; also called Fv-2906
Consider B5, for which the binding result in [2], in test [3], in test [16], in [4] and in test [5] was “no binding” in each case. The median fluorescence in [14] turned out to be 10.1; in test [15] it was 30.2; in [8] it was 3.55; in test [9], 5.05; in test [17] it was 5.23; in [10], 5.09. In addition, the median fluorescence in test [11] worked out at 2.92; in test [12], 4.03; in test [13] it was 19.8.
